Read-outs that look alike come from different tables or passages of the source.
How the values were obtained:
[1] = biological target: SARS-CoV-2 spike protein receptor binding domain (RBD2) (SARS-CoV-2) (UniProt P0DTC2)
[2] = biological target: SARS-CoV-2 spike protein receptor binding domain (RBD2) (SARS-CoV-2) (UniProt P0DTC2); assay: SPR sandwich binning, ligand Anti-His
[3] = biological target: SARS-CoV-2 spike protein receptor binding domain (RBD2) (SARS-CoV-2) (UniProt P0DTC2); assay: SPR sandwich binning, ligand B04
[4] = biological target: SARS-CoV-2 spike protein receptor binding domain (RBD2) (SARS-CoV-2) (UniProt P0DTC2); assay: SPR sandwich binning, ligand E01
[5] = biological target: SARS-CoV-2 spike protein receptor binding domain (RBD2) (SARS-CoV-2) (UniProt P0DTC2); assay: SPR sandwich binning, ligand E08
[6] = biological target: SARS-CoV-2 spike protein receptor binding domain (RBD2) (SARS-CoV-2) (UniProt P0DTC2); assay: SPR sandwich binning, ligand G07
[7] = biological target: SARS-CoV-2 spike protein receptor binding domain (RBD2) (SARS-CoV-2) (UniProt P0DTC2); assay: SPR sandwich binning, ligand H01
[8] = biological target: SARS-CoV-2 spike protein receptor binding domain (RBD2) (SARS-CoV-2) (UniProt P0DTC2); assay: SPR sandwich binning, ligand H05
[9] = biological target: SARS-CoV-2 spike protein receptor binding domain (RBD2) (SARS-CoV-2) (UniProt P0DTC2); assay: SPR sandwich binning, ligand S01
[10] = biological target: SARS-CoV-2 spike protein receptor binding domain (RBD2) (SARS-CoV-2) (UniProt P0DTC2); assay: SPR, immobilized antibody, RBD injected, 1:1 fit
[11] = biological target: SARS-CoV-2 spike protein receptor binding domain (RBD2) (SARS-CoV-2) (UniProt P0DTC2); assay: SPR sandwich binning, ligand CR3022
[12] = biological target: SARS-CoV-2 spike protein receptor binding domain (RBD2) (SARS-CoV-2) (UniProt P0DTC2); assay: SPR sandwich binning, ligand F07; light (intermediate) cell

Q: “CR3022 (commercial anti-RBD2 antibody, reference IgG)” was tested. Which Kd [1] did it give?
A: The Kd was 114 nM.

Q: What about the normalized analyte binding to RBD2 held by the immobilized ligand [2] of the same substance?
A: The normalized analyte binding to RBD2 held by the immobilized ligand was 1.45.

Q: And the normalized analyte binding to RBD2 held by the immobilized ligand [3]?
A: Its normalized analyte binding to RBD2 held by the immobilized ligand is 1.64.

Q: And the normalized analyte binding to RBD2 held by the immobilized ligand [4]?
A: Its normalized analyte binding to RBD2 held by the immobilized ligand is 1.63.

Q: And the normalized analyte binding to RBD2 held by the immobilized ligand [5]?
A: The normalized analyte binding to RBD2 held by the immobilized ligand was -0.1.

Q: What about the normalized analyte binding to RBD2 held by the immobilized ligand [6] of the same substance?
A: Its normalized analyte binding to RBD2 held by the immobilized ligand is 1.35.

Q: What about the normalized analyte binding to RBD2 held by the immobilized ligand [7] of the same substance?
A: The normalized analyte binding to RBD2 held by the immobilized ligand was -0.01.

Q: And the normalized analyte binding to RBD2 held by the immobilized ligand [8]?
A: Its normalized analyte binding to RBD2 held by the immobilized ligand is -0.14.

Q: What about the normalized analyte binding to RBD2 held by the immobilized ligand [9] of the same substance?
A: The normalized analyte binding to RBD2 held by the immobilized ligand was 1.83.

Q: What about the Kd [10] of the same substance?
A: The Kd was 110 nM.

Q: What about the normalized analyte binding to RBD2 held by the immobilized ligand [11] of the same substance?
A: The normalized analyte binding to RBD2 held by the immobilized ligand was -0.14.

Q: What about the normalized analyte binding to RBD2 held by the immobilized ligand [12] of the same substance?
A: Its normalized analyte binding to RBD2 held by the immobilized ligand is 0.23.

Source: patent US12018066
